Consider 56 substances from the supplement of paper PMC12042874.

± gives the uncertainty stated by the source.

The nature of this data set: amyloid nucleation score (Sup35N fusion, yeast selection) (log enrichment); library NNK1; higher = more nucleation; inactive = no reads after selection. In short, it runs like this:
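Nucleation score: DiMSum log enrichment of output over input reads, centred on the mode score of non-aggregating sequences. Only sequences with at least 100 input reads were kept. Reads came from Illumina sequencing of plasmid inserts before and after 7 days of growth at 30°C without adenine and uracil, in psi-negative yeast expressing Sup35N fused to peptides of 20 random codons after 24 hours of induction with 100 μM copper sulfate.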
The substance ASMID gave an amyloid nucleation score of 0.002 ± 0.27.
For GYLLCAG the value was 0.549 ± 0.71; for SFTYLCFKQILKPKCTLLAP, “inactive”; for MISGPNFEVYRLAVINGRSW, 0.848 ± 0.58.
On to RGSQTLGCVSGLHHHRFAIL, for which the amyloid nucleation score was -1.14 ± 0.63.
For EMKATIHLMLKINNTWFSVP the value was 2.07 ± 0.11.
In the case of HFSFLSVDKRHWAFGPLCRK it was 7.358 ± 0.073; in that of VIVSSWLLTCTYSRYMRY, -1.5 ± 2.7; in that of AVGSDWDVYWVPRRMRMMCS, -1.84 ± 2.7.
As to GSTDGKGVTQRNYVNSILYV, the amyloid nucleation score was 0.472 ± 0.78.
LSVGLKVDDEDQRLTYFVTI displayed an amyloid nucleation score of -0.614 ± 0.62.
For IEISDMSWFRPVMFNDAKEL the value was 1.44 ± 0.53.
In the case of NWINNRG it was 1.03 ± 0.32.
WPRNFYFMFRCLGMAAREMC: the amyloid nucleation score was 0.285 ± 0.63.
For SSLPDAWVYLGSSWLEDHGR the value was 0.461 ± 0.7.
In the case of NQILRLMCWTFYFRESSKSY it was “inactive”.
For ALNHRHTGTRK the value was 0.782 ± 0.61; for SRGVAALYSSNI, -0.278 ± 0.35; for GFMERLASIYTFFWGVDSK, -0.339 ± 1.2.
Consider TSFFADYVHTIKLLAPLSVG, for which the amyloid nucleation score entry was “inactive”.
For YVYWR the value was -1.82 ± 2.7; for SYPSGVLDSNNPVLARGLAQ, -0.227 ± 0.41; for NMDSNAIGGGGNGGVRLQSR, -0.76 ± 0.55.
The substance VYKTRVYVDCYEILDGSKEM returned an amyloid nucleation score of 0.491 ± 0.45.
DIVHGGYRLWTCKFGDVRYC registered an amyloid nucleation score of -0.162 ± 0.32.
For EFTRRAYYDRNAQLFHMDQC the value was 2.19 ± 0.18; for VFVSWHKVCTNQRSLRQVHL, 1.56 ± 0.48; for IEWFVLGDYMCTAQSVCGLV, -1.26 ± 1.3.
In the case of IDHPTVKLIRYSAIHIALVT it was 0.093 ± 0.28; in that of GFWSRSGSYQLICIYFGGYG, -0.296 ± 0.4.
For HDLHFFHGVAARQNVRRAYR the value was 0.724 ± 1; for FKNCFDSNTAGICLNHLWKR, 1.25 ± 0.63; for MINHSEPQHCMYV, 0.466 ± 0.9.
LGNMHREDYGSSGSRARFKG had an amyloid nucleation score of -0.612 ± 0.74.
NANINFSNTMQADVL returned an amyloid nucleation score of 0.116 ± 0.31.
For YLTWQKTWRVRVSVLCTGTD the value was 0.638 ± 0.58.
For the substance NVMNVIGGENWVSGFDCMGR, the amyloid nucleation score result is “inactive”.
As to NFIVVMCTIMNLCYKAQPNE, the amyloid nucleation score entry is “inactive”.
For QCSLRPVPRKDALSFLGLML the value was -0.363 ± 0.35; for YWCNYVIVMSCKWG, “inactive”; for QCTVGASMD, 0.169 ± 0.34.
The substance GWTCYLSVGRIRF returned an amyloid nucleation score of 1.94 ± 0.11.
For GEYCKSLSTE the value was 1.01 ± 0.93; for SLSLDSNEKRKRICFW, 1.36 ± 0.29.
For CSDRCTTYCLFSLSDRKRIL the value was -0.317 ± 0.25; for TLCYYLVWRR, 0.076 ± 0.29; for VGDKQFHTKYMVA, 0.031 ± 1.1.
The substance ATYAYRFRLVSTIICLD yielded an amyloid nucleation score of -0.222 ± 1.4.
In the case of LFWLKKNILLDRIHLP, the amyloid nucleation score is -0.172 ± 0.4.
For VGNVRPVFDTALTTWRRCCF the value was 0.223 ± 0.49; for SVFYYILNPSEAVHEVSVTS, -0.564 ± 0.48.
On to MIVGGNLEEIVNHCYFCVER, for which the amyloid nucleation score was 0.511 ± 0.24.
For FWDVVKLNGGSGMALFYAGL the value was 0.145 ± 1; for TFQNVLLLGSLVWNNNKS, 0.24 ± 0.55.
In the case of HEYDLDKGTS it was “inactive”.
For WPPMQGLSLSSLSSINHPHT the value was 0.76 ± 1.1.
